Laboratory results reported in patent US20070264679A1, “Method for analyzing the activity of lipoxygenase using a water-soluble substrate” (Chungnam National University Industry Collaboration …, priority 2006, published 2007).
One block for each molecule: values may come before it.

Columns and labels:
soybean LOX-1 [1] = molecular target: T1, soybean LOX-1 (Glycine max, UniProt P08170); assay: Kinetics of oxygenation of arachidonic acid or arachidonoyl-lysophospholipids by soybean LOX-1; assay type: biochemical; conditions: soybean LOX-1 2.5 units/ml, 50 mM borax buffer pH 9.0; unit = one nanomole conjugated diene per min
T1 construct: purchased Sigma-Aldrich Corp (St. Louis, Mo., USA) lipoxidase Type I-B
T1 sequence (P08170 1-839): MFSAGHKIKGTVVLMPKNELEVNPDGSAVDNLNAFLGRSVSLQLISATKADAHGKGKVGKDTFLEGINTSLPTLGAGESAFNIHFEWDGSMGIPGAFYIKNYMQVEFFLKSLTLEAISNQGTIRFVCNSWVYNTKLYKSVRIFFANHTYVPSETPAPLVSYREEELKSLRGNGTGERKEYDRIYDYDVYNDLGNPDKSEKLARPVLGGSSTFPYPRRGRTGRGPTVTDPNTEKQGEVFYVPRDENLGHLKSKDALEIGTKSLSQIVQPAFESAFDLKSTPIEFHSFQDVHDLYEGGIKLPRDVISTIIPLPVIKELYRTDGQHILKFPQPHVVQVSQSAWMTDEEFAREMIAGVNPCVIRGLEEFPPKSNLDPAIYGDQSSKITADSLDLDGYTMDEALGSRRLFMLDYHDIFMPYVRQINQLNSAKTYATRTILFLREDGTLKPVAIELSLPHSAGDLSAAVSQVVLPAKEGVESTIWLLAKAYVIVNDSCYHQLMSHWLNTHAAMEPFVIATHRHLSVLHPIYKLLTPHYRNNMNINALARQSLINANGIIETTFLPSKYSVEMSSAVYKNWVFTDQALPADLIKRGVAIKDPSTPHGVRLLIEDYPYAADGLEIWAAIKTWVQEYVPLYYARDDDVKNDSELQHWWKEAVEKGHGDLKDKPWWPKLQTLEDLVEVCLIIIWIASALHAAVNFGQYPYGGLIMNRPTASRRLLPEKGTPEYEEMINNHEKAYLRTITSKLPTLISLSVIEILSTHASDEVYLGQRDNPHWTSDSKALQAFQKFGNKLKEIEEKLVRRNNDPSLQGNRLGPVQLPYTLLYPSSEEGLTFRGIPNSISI
Protocol: (§1) Activities of various LOXs were monitored by measuring the increase in absorbance at 234 nm due to the formation of hydroperoxide (ε234=25,000 M^−1 cm^−1) at 25° C. as described before (Smith et al, J. Biol. Chem. 247 (1972) 1038-1047). One unit is defined as the amount of LOXs that can produce one nanomole of conjugated diene per min. The reaction mixture (500 μl) included reticulocyte LOX (2 units/ml) in 50 mM phosphate buffer (pH 7.4), porcine leukocyte LOX (1 unit/ml) in 100 mM phosphate buffer (pH 7.5) containing 5 mM EDTA and 0.03% Tween 20, or soybean LOX-1 (2.5 units/ml) in 50 mM borax buffer (pH 9.0) at 25° C. The reactions were started by including each substrate (100 μM) into the above reaction mixture.
(§2) Reticulocyte LOX (2 units/ml), leukocyte LOX (1 units/ml) or soybean LOX-1 (2.5 units/ml) was incubated with each arachidonoyl derivative substrate of various concentrations as described above. The values of kinetic parameters were obtained according to Lineweaver Burke plot analyses as described before (Barroso et al, J. Chromatogr. B. Analyt. Technol. Biomed. Life. Sci. 814 (2005) 21-28).

[2] = molecular target: T2, Leukocyte 12-lipoxygenase (leukocyte LOX) (Sus scrofa, UniProt P16469); assay: Kinetics of oxygenation of arachidonic acid or arachidonoyl-lysophospholipids by leukocyte LOX; assay type: biochemical, porcine; conditions: leukocyte LOX 1 unit/ml, 100 mM phosphate buffer pH 7.5, 5 mM EDTA, 0.03% Tween 20
T2 construct: purchased Cayman Chemical Co. (Ann Arbor, Mich., USA)
T2 sequence (P16469 1-663): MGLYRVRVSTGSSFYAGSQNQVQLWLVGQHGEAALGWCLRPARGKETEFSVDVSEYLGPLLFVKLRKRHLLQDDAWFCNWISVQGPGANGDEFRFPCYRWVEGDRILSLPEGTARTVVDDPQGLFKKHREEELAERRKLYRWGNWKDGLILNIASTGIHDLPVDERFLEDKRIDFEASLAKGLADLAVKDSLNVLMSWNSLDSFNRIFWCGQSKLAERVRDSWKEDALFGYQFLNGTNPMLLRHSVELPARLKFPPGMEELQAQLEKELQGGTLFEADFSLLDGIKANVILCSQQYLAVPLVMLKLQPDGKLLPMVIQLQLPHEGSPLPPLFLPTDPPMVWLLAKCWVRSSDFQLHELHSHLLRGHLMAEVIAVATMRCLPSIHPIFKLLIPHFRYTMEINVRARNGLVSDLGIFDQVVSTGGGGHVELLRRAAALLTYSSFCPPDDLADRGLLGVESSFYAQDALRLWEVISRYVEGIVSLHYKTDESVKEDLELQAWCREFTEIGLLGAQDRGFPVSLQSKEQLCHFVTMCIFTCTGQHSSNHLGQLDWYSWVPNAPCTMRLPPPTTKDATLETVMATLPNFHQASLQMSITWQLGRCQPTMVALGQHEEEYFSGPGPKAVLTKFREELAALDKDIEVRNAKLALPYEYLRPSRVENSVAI
Protocol: as §1, §2

Reticulocyte LOX = molecular target: T3, Reticulocyte LOX (Oryctolagus cuniculus, UniProt P12530); assay: Kinetics of oxygenation of linoleoylated substrates by reticulocyte LOX; assay type: biochemical, Rabbit; conditions: reticulocyte LOX 8.2 units/ml, 50 mM phosphate buffer pH 7.4, 25° C.; for Km: substrate 3-100 μM
T3 construct: purchased Biomol Inc. (Plymouth Meeting, Pa., USA)
T3 sequence (P12530 1-663): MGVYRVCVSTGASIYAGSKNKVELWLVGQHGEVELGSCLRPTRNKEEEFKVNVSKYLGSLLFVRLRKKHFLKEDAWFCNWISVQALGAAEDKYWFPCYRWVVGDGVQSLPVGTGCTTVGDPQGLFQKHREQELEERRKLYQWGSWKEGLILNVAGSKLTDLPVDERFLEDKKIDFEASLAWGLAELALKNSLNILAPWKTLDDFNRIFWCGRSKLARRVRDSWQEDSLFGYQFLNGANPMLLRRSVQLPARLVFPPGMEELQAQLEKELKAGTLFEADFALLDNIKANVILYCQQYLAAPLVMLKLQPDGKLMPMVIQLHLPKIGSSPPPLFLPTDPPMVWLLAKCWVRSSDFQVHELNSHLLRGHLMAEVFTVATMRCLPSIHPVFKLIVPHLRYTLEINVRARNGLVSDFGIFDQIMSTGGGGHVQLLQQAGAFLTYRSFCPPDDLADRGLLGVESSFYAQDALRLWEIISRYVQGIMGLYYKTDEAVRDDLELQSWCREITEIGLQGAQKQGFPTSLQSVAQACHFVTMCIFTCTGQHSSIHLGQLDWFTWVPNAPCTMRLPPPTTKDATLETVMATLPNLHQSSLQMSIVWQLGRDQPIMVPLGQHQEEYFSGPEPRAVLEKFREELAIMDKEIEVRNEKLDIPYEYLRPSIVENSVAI
Description: (§3) Data were expressed as means ±S.D. of results from at least three independent experiments.

Porcine leukocyte LOX = molecular target: T4, Porcine leukocyte LOX (Sus scrofa, UniProt P16469); assay: Kinetics of oxygenation of linoleoylated substrates by leukocyte LOX; assay type: biochemical; conditions: porcine leukocyte LOX 1.5 units/ml, 100 mM phosphate buffer pH 7.5, 5 mM EDTA
T4 construct: purchased Cayman Chemical Co. (Ann Arbor, Mich., USA)
T4 sequence (P16469 1-663): T2 sequence (P16469 1-663)
Description: as §3

soybean LOX-1 [3] = molecular target: T1, soybean LOX-1; assay: Kinetics of oxygenation of docosahexaenoic acid derivatives by soybean LOX-1; assay type: biochemical; conditions: soybean LOX-1 2.5 units/ml, 50 mM borax buffer pH 9.0, 25° C.
Protocol: (§4) Soybean LOX-1 (2.5 units/ml) was incubated with docosahexaenoyl-lysoPC, didocosahexaenoyl-lysoPC or docosahexaenoic acid of various concentrations in 500 μl of 50 mM borax buffer (pH 9.0) at 25° C. Values were expressed as means ±S.D. of results from at least three independent experiments.

[4] = substrate: CCCCC/C=C\C/C=C\C/C=C\C/C=C\CCCC(=O)O; assay: Kinetics of oxygenation of arachidonic acid or arachidonoyl-lysophospholipids by leukocyte LOX; assay type: biochemical, porcine; conditions: other: leukocyte LOX 1 unit/ml, 100 mM phosphate buffer pH 7.5, 5 mM EDTA, 0.03% Tween 20, 25° C.
Protocol: as §1, §2

[5] = substrate: CC/C=C\C/C=C\C/C=C\C/C=C\C/C=C\C/C=C\CCC(=O)O; assay: Kinetics of oxygenation of docosahexaenoyl-lysoPC or docosahexaenoic acid by leukocyte LOX; assay type: biochemical; conditions: other: porcine leukocyte LOX 2 units/ml, 100 mM phosphate buffer pH 7.4, 5 mM EDTA, 0.03% Tween 20, 25° C.
Protocol: Porcine leukocyte LOX (2 units/ml) was incubated with each substrate docosahexaenoyl-lysoPC or docosahexaenoic acid of various concentrations in 500 μl of 100 mM phosphate buffer (pH 7.4) containing 5 mM EDTA and 0.03% Tween 20 at 25° C.

[6] = substrate: CCCCC/C=C\C/C=C\C/C=C\C/C=C\CCCC(=O)O; assay: Kinetics of oxygenation of arachidonic acid or arachidonoyl-lysophospholipids by soybean LOX-1; assay type: biochemical; conditions: other: soybean LOX-1 2.5 units/ml, 50 mM borax buffer pH 9.0, 25° C.
Protocol: as §1, §2

[7] = substrate: CC/C=C\C/C=C\C/C=C\C/C=C\C/C=C\C/C=C\CCC(=O)O; assay: Kinetics of oxygenation of docosahexaenoic acid derivatives by soybean LOX-1; assay type: biochemical; conditions: other: soybean LOX-1 2.5 units/ml, 50 mM borax buffer pH 9.0, 25° C.
Protocol: as §4

Vm (soybean LOX-1 [1]): 92.2 units/μg
Vm [2]: 63.2 units/mg
Molecule: CCCCC/C=C\C/C=C\C/C=C\C/C=C\CCCC(=O)O [Arachidonic acid, arachidonic acid]

Vm (Reticulocyte LOX): 1029 ± 22 units/mg
Km (Reticulocyte LOX): 90 ± 7.3 µM
Molecule: CCCCC/C=C\C/C=C\CCCCCCCC(=O)OC[C@H](COP(=O)(O)O)OC(=O)CCCCCCC/C=C\C/C=C\CCCCC [Dilinoleoyl-PA]

Vm (Reticulocyte LOX): 443 ± 9 units/mg
Km (Reticulocyte LOX): 8.3 ± 0.6 µM
Vm (Porcine leukocyte LOX; 0.03% Tween 20): 30.7 ± 0.78 units/mg
Km (Porcine leukocyte LOX; substrate 3-100 μM, 0.03% Tween 20, 25° C.): 35.5 ± 3.77 µM
Molecule: CCCCC/C=C\C/C=C\CCCCCCCC(=O)OCC(O)COP(=O)(O)O (stereo not drawn) [Linoleoyl-lysoPA]

Molecule: didocosahexaenenoyl phosphatidylcholine [Didocosahexaenoyl-PC]
Km (soybean LOX-1 [3]): 1070 ± 184 µM
Vm (soybean LOX-1 [3]): 7.8 ± 0.3 units/μg

B1: Leukocyte 12-lipoxygenase (leukocyte LOX) (Sus scrofa) (protein)
chain: T2 sequence (P16469 1-663)
notes: purchased Cayman Chemical Co. (Ann Arbor, Mich., USA)
Km [4]: 7.7 µM
Vmax [4]: 63.2 ± 11.9 units/mg
Vmax/Km [4]: 8.2 ± 1.5 units/mg/μM

B2: Porcine leukocyte LOX (Sus scrofa) (protein)
chain: T2 sequence (P16469 1-663)
notes: as for B1
Km [5]: 17.6 ± 1.7 µM
Vmax [5]: 35.9 µmol/min/mg
Vmax/Km [5]: 2.1e+06 µL/min/mg

B3: soybean LOX-1 (Glycine max) (protein)
chain: T1 sequence (P08170 1-839)
notes: purchased Sigma-Aldrich Corp (St. Louis, Mo., USA) lipoxidase Type I-B
Km [6]: 12.4 µM
Vmax [6]: 92200 nmol/min/mg
Vmax/Km [6]: 7.4e+06 µL/min/mg
Km [7]: 16.8 ± 1.4 µM
Vmax [7]: 178000 nmol/min/mg
